Measurements from paper PMC3855764, “Oct4/Sox2 Binding Sites Contribute to Maintaining Hypomethylation of the Maternal Igf2/H19 Imprinting Control Region”.

B1: mSB (Sox mutant Sox-OctB) (dsDNA)
DNA 1: TTGGGGAACGAAGATGCTAATGATCTCCGGCT
DNA 2: AGCCGGAGATCATTAGCATCTTCGTTCCCCAA
B2: ICR Sox-OctA (dsDNA)
DNA 1: CTGGTGATTTGCGCTTTCGTATTCTAATTGGGGAC
DNA 2: GTCCCCAATTAGAATACGAAAGCGCAAATCACCAG
B3: ICR Sox-OctB (dsDNA)
DNA 1: TTGGGGCGTTCAGATGCTAATGATCTCCGGCT
DNA 2: AGCCGGAGATCATTAGCATCTGAACGCCCCAA
B4: ICR SoxC (dsDNA)
DNA 1: GCTCAGGGCTGCAAACAATTCTGAAACTGCATTCTC
DNA 2: GAGAATGCAGTTTCAGAATTGTTTGCAGCCCTGAGC
B5: mSA (Sox mutant Sox-OctA) (dsDNA)
DNA 1: CTAAGCGCTACGTCCTAGGTATTCTAATTGGGGAC
DNA 2: GTCCCCAATTAGAATACCTAGGACGTAGCGCTTAG

Experiments:
Details in all cases: protein: recombinant
[1] = target: T1, Oct4 (recombinant) (UniProt P20263 1-352); assay: EMSA; Oct4 binding not altered by Sox mutation; 10 mM Tris pH 8.0, 2 mM MgCl (so in the source), 100 mM KCl, 1.25 mM DTT, 5% glycerol, 0.0625% BSA, 19 ug/ml dGdC, 25 fmol probe in 16 ul, 10 min room temperature; 4% PAGE 0.25X TBE
T1 sequence (P20263 whole entry): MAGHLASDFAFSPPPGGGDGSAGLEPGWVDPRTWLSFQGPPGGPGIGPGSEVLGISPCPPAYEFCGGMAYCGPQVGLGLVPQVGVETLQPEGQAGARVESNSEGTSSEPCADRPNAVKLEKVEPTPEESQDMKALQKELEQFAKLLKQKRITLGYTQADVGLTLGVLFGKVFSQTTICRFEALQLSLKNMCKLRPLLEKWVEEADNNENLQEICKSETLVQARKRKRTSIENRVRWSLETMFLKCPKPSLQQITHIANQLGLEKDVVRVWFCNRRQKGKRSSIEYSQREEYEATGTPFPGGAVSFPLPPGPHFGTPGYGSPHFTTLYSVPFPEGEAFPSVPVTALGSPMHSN

[2] = target: T2, Sox2 (recombinant) (UniProt P48432 1-319); assay: EMSA; Sox2 alone; 10 mM Tris pH 8.0, 2 mM MgCl (so in the source), 100 mM KCl, 1.25 mM DTT, 5% glycerol, 0.0625% BSA, 19 ug/ml dGdC, 25 fmol probe in 16 ul, 10 min room temperature; 4% PAGE 0.25X TBE
T2 sequence (P48432 whole entry): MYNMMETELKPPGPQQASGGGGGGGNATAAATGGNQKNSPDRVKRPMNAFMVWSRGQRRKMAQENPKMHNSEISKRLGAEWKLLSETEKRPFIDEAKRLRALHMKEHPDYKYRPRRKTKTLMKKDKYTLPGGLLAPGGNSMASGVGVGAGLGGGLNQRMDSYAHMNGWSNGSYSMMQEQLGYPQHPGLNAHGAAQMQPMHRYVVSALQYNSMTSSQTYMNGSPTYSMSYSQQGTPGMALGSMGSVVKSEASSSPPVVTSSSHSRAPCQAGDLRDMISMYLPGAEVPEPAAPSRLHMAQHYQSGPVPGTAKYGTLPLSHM

[3] = target: T1, Oct4 (recombinant); assay: EMSA; bound both elements equally well; 10 mM Tris pH 8.0, 2 mM MgCl (so in the source), 100 mM KCl, 1.25 mM DTT, 5% glycerol, 0.0625% BSA, 19 ug/ml dGdC, 25 fmol probe in 16 ul, 10 min room temperature; 4% PAGE 0.25X TBE
[4] = target: T2, Sox2 (recombinant); assay: EMSA; 10 mM Tris pH 8.0, 2 mM MgCl (so in the source), 100 mM KCl, 1.25 mM DTT, 5% glycerol, 0.0625% BSA, 19 ug/ml dGdC, 25 fmol probe in 16 ul, 10 min room temperature; 4% PAGE 0.25X TBE
[5] = target: T2, Sox2 (recombinant); assay: EMSA; almost equal to WT; likely via octamer; 10 mM Tris pH 8.0, 2 mM MgCl (so in the source), 100 mM KCl, 1.25 mM DTT, 5% glycerol, 0.0625% BSA, 19 ug/ml dGdC, 25 fmol probe in 16 ul, 10 min room temperature; 4% PAGE 0.25X TBE

Binder	binding result [1]	binding result [3]	also measured
B1	binds		
B2		binds	binding result [2]: binds
B3		binds	
B4			binding result [4]: binds
B5	binds		binding result [5]: binds
